The source of these data is publication PMC5127057.

The target in experiment [1] is Human Neutrophil Elastase (human) (UniProt P08246). Briefly: stoichiometry of inhibition by titration of residual protease activity; 200 nM HNE or 300 nM PR3 mixed with varied Siropin, molar ratios from 0 to 10, 5 min at 37 °C, then substrate, absorbance at 405 nm for 30 min; x-intercept of linear regression; 20 mM Tris-HCl, 500 mM NaCl, pH 8.0.
Experiment [2] has as its target Human Proteinase 3 (human) (UniProt P24158). The experiment is described as above.
Sequence of UniProt P24158 (P24158 28-248): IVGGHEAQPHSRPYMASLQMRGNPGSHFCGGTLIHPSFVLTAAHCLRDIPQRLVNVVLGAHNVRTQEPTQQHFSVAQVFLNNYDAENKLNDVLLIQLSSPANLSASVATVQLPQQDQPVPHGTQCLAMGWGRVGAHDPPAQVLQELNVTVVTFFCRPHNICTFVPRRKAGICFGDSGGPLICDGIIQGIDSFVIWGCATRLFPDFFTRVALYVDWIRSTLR
Experiment [3] addresses Human Neutrophil Elastase (human) (UniProt P08246). The experiment can be described thus: progress curve kinetics of protease inhibition; pseudo-first-order conditions, Siropin 1 to tenfold over protease, 200 µM substrate, HNE (200 nM) or PR3 (300 nM), 37 °C, 405 nm for 20 min; k obs against Siropin concentration, slope k'app corrected for substrate competition (Km 114 µM HNE, 270 µM PR3).

Experiment [4] has as its target Human Proteinase 3 (human) (UniProt P24158). The description is as above.

Sequence of UniProt P08246 (P08246 30-267): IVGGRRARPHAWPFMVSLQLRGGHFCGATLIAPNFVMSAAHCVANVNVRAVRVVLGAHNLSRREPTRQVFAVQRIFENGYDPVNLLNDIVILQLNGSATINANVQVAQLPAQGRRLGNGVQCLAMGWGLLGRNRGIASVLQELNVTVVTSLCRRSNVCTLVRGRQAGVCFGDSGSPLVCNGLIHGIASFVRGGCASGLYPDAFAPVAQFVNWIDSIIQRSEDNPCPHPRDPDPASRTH

As usually defined, the kon is the rate constant with which the complex forms. Siropin 1 (natural protein): the stoichiometry of inhibition (SI) came out at 1.76 in experiment [1] and 1.1 in experiment [2]. Moreover, the kon in experiment [3] is 84000 M⁻¹ s⁻¹; in experiment [4] it was 260000 M⁻¹ s⁻¹.
Regarding Siropin 2 (natural protein), the values for the stoichiometry of inhibition (SI) in experiment [1] and in experiment [2] were 1.82 and 1.1, respectively. The kon in experiment [3] came to 77000 M⁻¹ s⁻¹; in experiment [4] it was 110000 M⁻¹ s⁻¹.
